Assay results from paper PMC2752052.

Substrate: NC(=O)c1ccc[n+]([C@@H]2O[C@H](COP(=O)([O-])OP(=O)(O)OC[C@H]3O[C@@H](n4cnc5c(N)ncnc54)[C@H](O)[C@@H]3O)[C@@H](O)[C@H]2O)c1
Assay: purified protein
Type: biochemical, Homo sapiens

B1: Sirt1 (Homo sapiens) (protein)
chain: ADEAALALQPGGSPSAAGADREAASSPAGEPLRKRPRRDGPGLERSPGEPGGAAPEREVPAAARGCPGAAAAALWREAEAEAAAAGGEQEAQATAAAGEGDNGPGLQGPSREPPLADNLYDEDDDDEGEEEEEAAAAAIGYRDNLLFGDEIITNGFHSCESDEEDRASHASSSDWTPRPRIGPYTFVQQHLMIGTDPRTILKDLLPETIPPPELDDMTLWQIVINILSEPPKRKKRKDINTIEDAVKLLQECKKIIVLTGAGVSVSCGIPDFRSRDGIYARLAVDFPDLPDPQAMFDIEYFRKDPRPFFKFAKEIYPGQFQPSLCHKFIALSDKEGKLLRNYTQNIDTLEQVAGIQRIIQCHGSFATASCLICKYKVDCEAVRGDIFNQVVPRCPRCPADEPLAIMKPEIVFFGENLPEQFHRAMKYDKDEVDLLIVIGSSLKVRPVALIPSSIPHEVPQILINREPLPHLHFDVELLGDCDVIINELCHRLGGEYAKLCCNPVKLSEITEKPPRTQKELAYLSELPPTPLHVSEDSSSPERTSPPDSSVIVTLLDQAAKSNDDLDVSESKGCMEEKPQEVQTSRNVESIAEQMENPDLKNVGSSTGEKNERTSVAGTVRKCWPNRVAKEQISRRLDGNQYLFLPPNRYIFHGAEVYSDSEDDVLSSSSCGSNSDSGTCQSPSLEEPMEDESEIEEFYNGLEDEPDVPERAGGAGFGTDGDDQEAINEAISVKQEVTDMNYPSNKS
Km: 171 ± 23 µM
